Molecular target: T1, pentapeptide Gln-Pro-Gln-Gln-Pro
T1 chain: QPQQP

B1: FvePro4 (protein)
chain: ASRLSSRRWASSENMTKLDTTSRLNRLRGLMKERNVQIYIVPSEDSHSSEYIADCDARRAYISGFTGSAGCAVVTLESAALATDGRYFNQATSQLDSNWTLLKQGLQDVPTWQDWSAEQSSGGKNVGVDPTLISGSTAKNLAEKIRKNGGAELLPVDGNLVDLVWGDERPSRPSEQVIIQPDELAGESVLNKLTKVRQELEKKHSPGFLVSMLDEIAWLFNLRGNDIPYNPVFFAYATVTPDAAKLYIDEAKLDDKCRSHLTSNKVDIKPYETIFDDAQALHAAHAAKSKSGDKVPTGNFLISNKGSWALKRALGGDSSVDEIRSLIGDAKAIKTEAELKGMRDCHVRDGAALIQYFAWLEDQLVNKKATLDEVQAADKLEELRKVKKDFVGLSFPTISSTGANAAIIHYGPERGNCATIDPEAIYLCDSGAQYRDGTTDTTRTLHFGKPTEAEREAYTLVLKGHISLDQAIFPKGTTGFALDSLARQHLWKNGLDYRHGTGHGVGSFLNVHEGPIGIGTRVQYAEVALAPGNVLSNEPGYYEDGKYGIRIENMVLVKEVKTKHSFGDKPFLGFEYVTLVPYCRNLIDTTLLTSEEKEWLNTYNAKVLEKTQEYFEGDDVTLAWLKRETQHVE
pentapeptide hydrolysis (ninhydrin reaction, A570): all purified proteases are capable of hydrolyzing pentapeptide Gln-Pro-Gln-Gln-Pro
